Where a chain is given by its changes, count along the chain named.
Key:
Assay in all cases: immunofluorescence (legend of FIG. 4)
[1] = biological target: T1, wild-type human ALK2 on cells (cDNA in pcDEF3) (human, UniProt Q04771 21-509)
T1 construct: also called wild-type ALK2; ALK2 (WT)
T1 sequence: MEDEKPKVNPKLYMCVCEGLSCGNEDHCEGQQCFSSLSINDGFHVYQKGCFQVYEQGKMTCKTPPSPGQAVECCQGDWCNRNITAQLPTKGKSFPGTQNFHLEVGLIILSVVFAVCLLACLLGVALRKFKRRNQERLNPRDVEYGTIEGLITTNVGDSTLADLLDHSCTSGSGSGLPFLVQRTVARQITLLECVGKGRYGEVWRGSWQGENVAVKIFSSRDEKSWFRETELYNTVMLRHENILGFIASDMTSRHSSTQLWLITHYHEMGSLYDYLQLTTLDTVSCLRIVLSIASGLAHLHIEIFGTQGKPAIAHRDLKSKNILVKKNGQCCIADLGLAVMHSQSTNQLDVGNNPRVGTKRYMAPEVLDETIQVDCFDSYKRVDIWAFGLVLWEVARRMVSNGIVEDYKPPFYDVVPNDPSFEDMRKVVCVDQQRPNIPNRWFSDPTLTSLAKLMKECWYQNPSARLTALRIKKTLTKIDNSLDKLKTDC
Procedure: (§1) Mouse C2C12 cells were seeded into a 96-well plate (Greiner Bio-One) at 0.5×10³ cells/well, and cultured in 15% FBS-containing DMEM medium overnight under the conditions of 5% CO₂ at 37° C. On the following day, the C2C12 cells were transfected with each of a wild-type human ALK2 cDNA integrated into pcDEF3; pcDEF3/human ALK2-L196P, pcDEF3/human ALK2-P197_F198delinsL, pcDEF3/human ALK2-R202I, pcDEF3/human ALK2-R206H, pcDEF3/human ALK2-Q207E, pcDEF3/human ALK2-R258S, pcDEF3/human ALK2-G325A, pcDEF3/human ALK2-G328E, pcDEF3/human ALK2-G328R, pcDEF3/human ALK2-G328W, pcDEF3/human ALK2-G356D, and pcDEF3/human ALK2-R375P, which are variants identified in FOP; and pcDEF3 as a control, using Lipofectamine 2000 (Invitrogen), and further cultured overnight.
(§2) The C2C12 cells were fixed with 10% neutral formalin (Nacalai Tesque, Japan) for 20 minutes at room temperature, and then blocked with 10% goat normal serum for 30 minutes. After the blocking agent was removed, purified IgG diluted to 10 μg/mL with the blocking agent was added, and the cells were left for 1 hour at room temperature. After the cells were washed with PBS three times, Goat Alexa 594-conjugated anti-rat IgG (Invitrogen) diluted to 1:1000 with the blocking agent was added, and the cells were left for 1 hour at room temperature. After the cells were washed with PBS three times, the cells were fixed with 10% neutral formalin for 15 minutes at room temperature, and nuclear-stained with DAPI (LifeTechnologies). Fluorescent signals were analyzed with a fluorescence microscope BZ-9000 (Keyence).

[2] = biological target: T2, human ALK2-L196P on cells (human, UniProt Q04771 21-509)
T2 sequence: T1 sequence with L176P
Procedure: as §1, §2

[3] = biological target: T3, human ALK2-G328E on cells (human, UniProt Q04771 21-509)
T3 sequence: T1 sequence with G308E
Procedure: as §1, §2

[4] = biological target: T4, human ALK2-G328W on cells (human, UniProt Q04771 21-509)
T4 sequence: T1 sequence with G308W
Procedure: as §1, §2

Measured: binding result

B1: rat anti-ALK2 monoclonal antibody A2-11E (antibody, V domains shown)
VH: EVQLVETGGGLVQPGRSLKLSCVASGFTFSNYYMYWIRQAPGKGLEWISSINTDGGSTYYPDSVKGRFAISRDNAENTVYLQMNSLRSEDTATYYCAKSTPNIPLAYWGQGTLVTVSS
VL: DIQMTQSPSLLSASVGDRVTLSCKASQNIYKYLNWFQQKLGEAPKLLIYYSNSLQTGIPSRFSGSGSGTDFTLTISSLQPEDVAIYFCFQYSSGPTFGPGTKLELKR
notes: Rat monoclonal IgG from a hybridoma; also called 11E2
binds: [1] | [2] | [3] | [4]

B2: rat anti-ALK2 monoclonal antibody A2-15A (antibody, V domains shown)
VH: EVQLVESGGGLVQPGRSLKLSCAASGFTFSHYYMAWVRQAPTKGLEWVASITNSGGSINYRDSVKGRFTISRDNAKSTLYLQMDSLRSEDTATYYCTREGGENYGGYPPFAYWGQGTLVTVSS
VL: DIVLTQSPALAVSLGQRATISCRANQGVSLSRYNLMHWYQQKPGQKPKLLIYRSSNLASGIPARFSGSGSGTDFTLTINPVQADDIATYYCQQSRESPFTFGAGTKLELKR
notes: Rat monoclonal IgG from a hybridoma; also called 15A6
binds: [1] | [2] | [3] | [4]

From patent US20220041738A1 (SAITAMA MEDICAL UNIVERSITY, published 2022)
